One experiment addresses T1, GFP-GEF-H1 (human, UniProt Q92974 93-986).
T1 construct: The legend says GFP-GEF-H1, the text GEF-H1S; also called GEF-H1S; EGFP-GEF-H1S; not shown: EGFP from vector pEGFP-C1 (Clontech)
T1 sequence: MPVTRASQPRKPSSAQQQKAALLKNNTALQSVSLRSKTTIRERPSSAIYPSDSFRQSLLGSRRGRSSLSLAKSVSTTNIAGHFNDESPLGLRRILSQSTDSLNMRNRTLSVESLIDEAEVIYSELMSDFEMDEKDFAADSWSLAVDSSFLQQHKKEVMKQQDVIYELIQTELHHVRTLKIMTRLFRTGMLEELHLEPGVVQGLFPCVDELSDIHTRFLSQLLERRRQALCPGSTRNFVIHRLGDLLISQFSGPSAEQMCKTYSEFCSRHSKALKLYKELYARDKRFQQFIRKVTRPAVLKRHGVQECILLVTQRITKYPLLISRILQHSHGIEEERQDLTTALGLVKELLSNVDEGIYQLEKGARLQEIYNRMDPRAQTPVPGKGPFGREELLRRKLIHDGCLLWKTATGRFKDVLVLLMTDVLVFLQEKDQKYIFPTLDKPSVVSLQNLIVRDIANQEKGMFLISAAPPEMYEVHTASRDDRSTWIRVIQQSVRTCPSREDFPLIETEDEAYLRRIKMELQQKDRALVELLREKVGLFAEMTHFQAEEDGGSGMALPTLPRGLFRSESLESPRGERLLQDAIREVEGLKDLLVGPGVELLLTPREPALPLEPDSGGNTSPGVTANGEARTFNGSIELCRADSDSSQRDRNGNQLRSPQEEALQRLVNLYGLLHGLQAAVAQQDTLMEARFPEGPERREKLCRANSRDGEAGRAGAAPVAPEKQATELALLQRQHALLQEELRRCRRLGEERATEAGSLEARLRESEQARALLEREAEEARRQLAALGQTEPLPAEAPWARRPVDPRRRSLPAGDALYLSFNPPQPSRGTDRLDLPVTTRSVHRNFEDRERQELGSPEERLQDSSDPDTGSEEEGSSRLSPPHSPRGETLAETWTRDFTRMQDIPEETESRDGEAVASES
The experiment can be described thus: biotinylated peptide on streptavidin beads, pull-down from 293T lysate, GEF-H1 immunoblot. As to the method:
FIG. 1: Direct binding of GEF-H1 to PAK4. […] An equivalent amount of beads and excess lysates (500 ug) were used. Eluates of beads and total lysates were analysed by SDS-PAGE and immunoblotted with myc or GEF-H1 antiserum; (c) represents a PAK4 gene schematic outlining the regions of PAK4 used to identify the GEF-H1 interaction domain (GID). d, alignment of the GID defined by the minimal binding region of PAK4 with PAK5 and PAK6.
Biotinylated peptides derived from the N-terminal region of PAK4 sequence were used to further map the GEF-H1 binding site. […] Based on the homology within the GID of PAK4 it is possible that PAK5 and PAK6 also interact with GEF-H1 or related proteins.
Background: Immunoblotting shows a protein as a band on a membrane.

Experiment [1] concerns the target T2, Glutathione-s-transferase (GST) fused PAK4 (residues 291-591) (human, UniProt O96013 291-591).
T2 construct: Bait of the phage display screen; the paragraphs that tell the kinase results say only PAK4; also called PAK4 kinase; not shown: glutathione-S-transferase (GST), protein product of the SJ26 gene, fusion partner from pGEX-4T
The experiment is described as follows: phage display screen, GST-PAK4 (291-591) on glutathione beads, MCF7 cDNA library. The source says:
The phage display hits isolated in the screen corresponded to in-frame fusions derived from several distinct genes. One fragment was derived from the Maguin-2-like gene. Two other hits were derived from the GEF-H1S splice variant of GEF-H1.
This expression vector allowed production and expression of a gene appropriately inserted, as a fusion protein where the fusion partner is the protein product of the SJ26 gene glutathione-s-transferase (GST). The fusion partner GST allows for affinity immobilization on glutathione sepharose 4B matrix (Amersham Biosciences Cat # 17-0756-01) also known as glutathione beads. The PAK4 polypeptide immobilized to these beads was incubated with a lysate containing phage particles expressing a library of peptides derived from MCF7 (breast carcinoma tissue culture cells available from ATCC, USA) cDNA. See, Zozulya et al., Nat. Biotechnol., 17(12): p. 1193-8, 1999. Upon sequencing many of the candidates obtained in this screen, the GEF-H1S polypeptide was discovered in the clone designated 13-8. Sequencing was performed on a ABI prizm machine using standard methods provided by the manufacturer (Applied Biosystems, USA).

In experiment [2] the target is T3, amino-terminal regulatory domain of PAK4 alone (amino acids 1-309) (human, UniProt O96013 1-309).
T3 construct: Over-expressed in 293T cells, used as cell lysate
T3 sequence (looked up): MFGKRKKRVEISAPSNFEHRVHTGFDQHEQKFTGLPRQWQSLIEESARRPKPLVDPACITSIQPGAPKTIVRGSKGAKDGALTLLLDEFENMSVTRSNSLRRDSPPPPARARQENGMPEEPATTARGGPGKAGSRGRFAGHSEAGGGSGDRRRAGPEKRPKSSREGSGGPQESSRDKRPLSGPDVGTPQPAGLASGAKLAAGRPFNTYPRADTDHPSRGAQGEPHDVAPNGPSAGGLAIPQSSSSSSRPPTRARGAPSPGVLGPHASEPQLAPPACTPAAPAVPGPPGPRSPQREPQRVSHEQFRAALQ
The experiment can be described thus: GST pull-down on glutathione beads from 293T lysate, myc immunoblot. As to the method: An equivalent amount of beads and excess lysates (500 ug) were used. Eluates of beads and total lysates were analysed by SDS-PAGE and immunoblotted with myc or GEF-H1 antiserum; (c) represents a PAK4 gene schematic outlining the regions of PAK4 used to identify the GEF-H1 interaction domain (GID). d, alignment of the GID defined by the minimal binding region of PAK4 with PAK5 and PAK6.
These fusion proteins were bound to glutathione beads and utilized in binding assays with 293T lysates expressing exogenous PAK4.
The GST immobilized GEF-H1S polypeptide was used to conduct immunoprecipitation from the 293T cell extracts. The resulting protein complexes on the beads were identified by separating on SDS-PAGE followed by Western blotting to identify proteins that are present. The Western blot technique (Renart et al., Methods Enzymol., 104:455-60, 1984) is universally used to identify proteins using specific immunoreagents like antibodies. […] PAK4 was not present after immunoprecipitation with immobilized fusion partner GST. This interaction was limited by the presence or absence of GEF-H1S.

B1: biotinylated PAK4 peptide, amino acids 291-355 (peptide, UniProt O96013 291-355, looked up)
peptide: SPQREPQRVSHEQFRAALQLVVDPGDPRSYLDNFIKIGEGSTGIVCIATVRSSGKLVAVKKMDLR
modifications: biotinylated (position not given)
notes: Linked to streptavidin beads
On to B1, for which, in the experiment with GFP-GEF-H1, the binding result was “no binding”.

B2: GEF-H1S polypeptide of phage display clone 13-8 (amino acids 763-921) (other)
chain: LRESEQARALLEREAEEARRQLAALGQTEPLPAEAPWARRPVDPRRRSLPAGDALYLSFNPPQPSRGTDRLDLPVTTRSVHRNFEDRERQELGSPEERLQDSSDPDTGSEEEGSSRLSPPHSPRGETLAETWTRDFTRMQDIPEETESRDGEAVASES
notes: Two hits came from GEF-H1S; only this one has stated limits; also called phage clone 13.8; GEF-H1 phage display hit; not shown: phage display fusion partner
B2: the binding result in experiment [1] is listed as “binds”.

B3: GST-GEF-H1S (aa763-921) (other)
chain: LRESEQARALLEREAEEARRQLAALGQTEPLPAEAPWARRPVDPRRRSLPAGDALYLSFNPPQPSRGTDRLDLPVTTRSVHRNFEDRERQELGSPEERLQDSSDPDTGSEEEGSSRLSPPHSPRGETLAETWTRDFTRMQDIPEETESRDGEAVASES
notes: not shown: glutathione-S-transferase (GST), protein product of the SJ26 gene, fusion partner from pGEX-4T
B3: the binding result in experiment [2] is “no binding”.

(Values after patent US20040091907A1 (SUGEN, published 2004).)
